Results published in patent US20210252069A1 (published 2021).

T1: IL13Rα2 (human, UniProt Q14627 27-380)
T1 construct: whole, on cells; Endogenous target on U87 cells; also called IL-13Ra2; IL13Ra2
T1 sequence (looked up): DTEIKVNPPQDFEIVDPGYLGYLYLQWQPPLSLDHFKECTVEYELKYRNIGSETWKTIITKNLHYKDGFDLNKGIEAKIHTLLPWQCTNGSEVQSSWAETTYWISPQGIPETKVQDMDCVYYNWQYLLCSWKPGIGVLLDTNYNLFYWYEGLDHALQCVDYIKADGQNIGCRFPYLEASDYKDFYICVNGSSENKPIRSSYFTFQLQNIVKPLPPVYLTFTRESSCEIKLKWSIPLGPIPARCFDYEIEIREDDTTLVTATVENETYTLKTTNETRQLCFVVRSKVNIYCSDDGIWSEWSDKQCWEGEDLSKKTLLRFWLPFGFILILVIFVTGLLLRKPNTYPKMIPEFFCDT


Target: T1, IL13Rα2
Test: inferred by the filing from LDH cytotoxicity of CAR-T cells on U87 (IL13Rα2+) versus 293FT (IL13Rα2-) cells
Method: In order to measure the cytotoxicity of IL13Rα2-specific CAR-T cells prepared in Example 2 (#1, #2, #5, #6, #7, #8, #11, or #12), cytotoxicity assay was performed using an LDH (Promega) kit. Specifically, CAR-T cells (effector cells) were used 10 days after activation of the cells with an anti-CD3 Ab, and the CAR-T cells (having a CAR expression rate of 20% to 40%) were added to a 6-well plate at a ratio 1:2, in which effector:target was 1×10⁶ cells:2×10⁶ cells and reacted at 37° C. for 24 hours.
An analysis was performed to examine whether IL13Rα2-specific CAR-T cells prepared in the present invention can effectively kill the target cancer cells (U87 expressing IL13Rα2).

Binder | binding result
CAR-containing polypeptide #6 (IL13Rα2-specific chimeric antigen receptor with human IL13.E11K.R64D.S67D.R107K binding domain, 4-1BB, IL-7Rα part, mutant CD3ζ) (receptor, Expressed on human T cells; also called CAR-T #6; PG13/#6) not shown | binds
CAR-containing polypeptide #12 (IL13Rα2-specific chimeric antigen receptor with human IL13.E11K.R64D.S67D.R107K binding domain, 4-1BB, IL-2Rβ part, mutant CD3ζ) (receptor, Expressed on human T cells; also called CAR-T #12; PG13/#12) not shown | binds
